The data set concerns K4 kissing-loop RNA reporter. The experiment in a line: apparent KD of K4 kissing-loop reporter; higher = weaker reporter binding. The settings on record: Eterna round: R107. The protocol: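 RNA-MaP round R107: designed RNA switches with theophylline, tryptophan, arginine or FMN aptamers are transcribed on-chip within common flanks. They are titrated with a labelled K4 kissing-loop RNA reporter in RNA-MaP buffer (100 mM Tris pH 7.5, 80 mM KCl, 4 mM MgCl2), without ligand or with the indicated ligand. Median apparent KD per design.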

[1] abbreviates: input ligand: theophylline 20 uM.
The mark [2] stands for this setting: input ligand: tryptophan 2.4 mM.
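Further: bound reporter read as fluorescence of individual clusters on recovered sequencing chips by microscopy, with normalized cluster intensities fitted with a binding model.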

Turning to “CCGGAGGAAGUCGCUUUUCCUGUGGCAUAGAAGGAUAUCCAAUUAAGGAGAAGGUCUAUCUGCCUUAGUGAUGUUAGGAAGUAGA [theeternabot_sameState_KL_FMN_A_23]”, the “apparent KD of K4 kissing-loop reporter” value worked out at 172 nM (input ligand: FMN 200 uM); 89.1 nM (input ligand: arginine 13.2 mM); 135 nM (input ligand: none); 162 nM under setting [1]; 167 nM under setting [2].

In the case of “CCUAUCUCAUACGAUACCAGUCAAUAUAAACGAGUGAUGUUCGAAAUAAUAUGCCAUCACGACCCUUGGCAGCGUAUGGGAUAGG [Ex Theophylline B K4 6]”, the “apparent KD of K4 kissing-loop reporter” value reads like this: (input ligand: FMN 200 uM) 158 nM; (input ligand: arginine 13.2 mM) 88.8 nM; (input ligand: none) 141 nM; under setting [1], 214 nM; under setting [2], 126 nM.

Take “CCUAUCUCAUACGAUACCAGUCAAUGAGAUUUUAUCAAUGCCAUCACCGAGUGAUGUUCGGACCCUUGGCAGCGUAUGGGAUAGG [#02 K4 Theophylline B Exclusion]”: the “apparent KD of K4 kissing-loop reporter” value is, setting by setting: (input ligand: FMN 200 uM) 236 nM; (input ligand: arginine 13.2 mM) 185 nM; (input ligand: none) 217 nM; under setting [1], 298 nM; under setting [2], 221 nM.

In the case of “CCUAUCUCAUACGAUACCAGUGAUUAACCAGUGAUGUUGGAAUAACCAAGGAAUAUUUAUCACCCUUGGCAGCGUAUGGGAUAGG [Ex Theophylline B K4 28]”, the “apparent KD of K4 kissing-loop reporter” value is 99.8 nM (input ligand: FMN 200 uM); 54.4 nM (input ligand: arginine 13.2 mM); 83.3 nM (input ligand: none); 115 nM under setting [1]; 69.4 nM under setting [2].

Turning to “CCUUGGGCACGCCCACUAGGAAGCUAGUCUAAGGAUAUCGACUGGACGAGAAGGUAGACGGACCCGAGUGAUGUUCGGACAUAGG [theeternabot_sameState_KL_FMN_A_1]”, the “apparent KD of K4 kissing-loop reporter” value is 469 nM (input ligand: FMN 200 uM); 260 nM (input ligand: arginine 13.2 mM); 215 nM (input ligand: none); 179 nM under setting [1]; 200 nM under setting [2].

In the case of “CGACUAUUUCGAUAGUCGAUAGACACGGAAGGAGCGGGAUUCGUCCCAGGUAGGUCGCCGUGAAGUUGAGUGAUGUUCAACGUGU [Arg A SS t13]”, the “apparent KD of K4 kissing-loop reporter” value by setting is: (input ligand: FMN 200 uM) 160 nM; (input ligand: arginine 13.2 mM) 155 nM; (input ligand: none) 155 nM; under setting [1], 170 nM; under setting [2], 147 nM.

Consider “CGAGAAUGUCGACAGUCAUCGGUCCAUGCACGAGGACCGGUACGGCCGCCACUCGAGCGUGGCAGUGAUGUUGCCAGCGCACUAA [KL-XTryp-A14]”, for which the “apparent KD of K4 kissing-loop reporter” value amounted to 99.6 nM (input ligand: FMN 200 uM); 85.1 nM (input ligand: arginine 13.2 mM); 86.3 nM (input ligand: none); 86 nM under setting [1]; 100 nM under setting [2].

Turning to “CGAGAGCUCUUGUUUGGAUGUGUUUUAUGGCGAGGACCGGUACGGCCGCCACUCGGGUGAUGUUAGUGAUGUUGAUGUAGUGAUG [qzxmullin]”, the “apparent KD of K4 kissing-loop reporter” value (input ligand: FMN 200 uM) stood at 118 nM; the “apparent KD of K4 kissing-loop reporter” value (input ligand: arginine 13.2 mM) turned out to be 79.6 nM; the “apparent KD of K4 kissing-loop reporter” value (input ligand: none) was 92.7 nM; the “apparent KD of K4 kissing-loop reporter” value under setting [1] was found to be 154 nM; the “apparent KD of K4 kissing-loop reporter” value under setting [2] is 91.4 nM.

Turning to “CGAGUGAUGUUCGUUCGUAUAUUUGGGUGACAGGAUAUGCGGAAACGCAGAAGGGUCGCCUUCGGGUUACCCGAAUUGGCGUUUU [FMN A Model 2]”, the “apparent KD of K4 kissing-loop reporter” value by setting is: (input ligand: FMN 200 uM) 444 nM; (input ligand: arginine 13.2 mM) 402 nM; (input ligand: none) 546 nM; under setting [1], 461 nM; under setting [2], 455 nM.

For “CGAGUGAUGUUCGUUUUUUACUCUGUUUGACAGGAUAUGCGGAAACGCAGAAGGGUCACCUUUGAGUUAGACGGAGUUAUUUUUU [Ex FMN A 21]”, the “apparent KD of K4 kissing-loop reporter” value was 409 nM (input ligand: FMN 200 uM); 287 nM (input ligand: arginine 13.2 mM); 322 nM (input ligand: none); 309 nM under setting [1]; 290 nM under setting [2].

In the case of “CGAUUCAUGGCGGCCGCCACUCGCGAAGCUCCCGUUACGAUGUCCGCAACAGUGAUGUUGUUGCCGAGGACCGGGCCGAGAUCCA [theeternabot_exclusion_KL_Trp_B_31]”, the “apparent KD of K4 kissing-loop reporter” value was 283 nM (input ligand: FMN 200 uM); 173 nM (input ligand: arginine 13.2 mM); 228 nM (input ligand: none); 211 nM under setting [1]; 218 nM under setting [2].

Turning to “CGCAAGCAGCCAGUGAUGUUGGCCGCCUUGCGAGGACCGGUACGGCCGCCACUCGAAGGCGGCUACUGGUAAACCGUCUAACGGA [Oronorenma]”, the “apparent KD of K4 kissing-loop reporter” value reads like this: (input ligand: FMN 200 uM) 94.9 nM; (input ligand: arginine 13.2 mM) 71.7 nM; (input ligand: none) 66.4 nM; under setting [1], 62.8 nM; under setting [2], 90.1 nM.

As for “CGCAGUGAUGUUGCUAUUAUUCUUGAUUAACGAGGACCGGUACGGCCGCCACUCGAUUUCUAUCUAAUUUAGUGUUAUGUUGAUU [JR_ExcTryptoA_Sub007]”, the “apparent KD of K4 kissing-loop reporter” value (input ligand: FMN 200 uM) is 351 nM; the “apparent KD of K4 kissing-loop reporter” value (input ligand: arginine 13.2 mM) was found to be 423 nM; the “apparent KD of K4 kissing-loop reporter” value (input ligand: none) came to 397 nM; the “apparent KD of K4 kissing-loop reporter” value under setting [1] was found to be 447 nM; the “apparent KD of K4 kissing-loop reporter” value under setting [2] was found to be 256 nM.

With “CGCAGUGAUGUUGCUAUUAUUCUUGAUUAACGAGGACCGGUACGGCCGCCACUCGAUUUCUAUCUUAUUUUGUGUUAUGUUGAUU [JR_ExcTryptoA_Sub008]”, the “apparent KD of K4 kissing-loop reporter” value was found to be 306 nM (input ligand: FMN 200 uM); 359 nM (input ligand: arginine 13.2 mM); 333 nM (input ligand: none); 417 nM under setting [1]; 225 nM under setting [2].

“CGCGCUGGUUGAGAGGUUGGCGCGAAUGAUACCAGUAUAUAAGAAUACCCUUGGCAGCAUAAGAAAGAUAUAGUGAUGUUGUAUA [SSTheophA.H]”: the “apparent KD of K4 kissing-loop reporter” value is, setting by setting: (input ligand: FMN 200 uM) 592 nM; (input ligand: arginine 13.2 mM) 344 nM; (input ligand: none) 404 nM; under setting [1], 448 nM; under setting [2], 370 nM.

Turning to “CGCGUGGGUUUGAGAGGGUUUGUGCGAAGUGAGGAUAUUUAGGGAGAAAGAAGGCACUAUAAAAUAUAGUGAUGUUAUAUAAGGG [SSFMNA.K]”, the “apparent KD of K4 kissing-loop reporter” value by setting is: (input ligand: FMN 200 uM) 295 nM; (input ligand: arginine 13.2 mM) 226 nM; (input ligand: none) 275 nM; under setting [1], 225 nM; under setting [2], 227 nM.

The values above are taken from the supplement of paper PMC9170038.
